{
  "source": "paper PMC7368010",
  "about": "“Global translation during early development depends on the essential transcription factor PRDM10”",
  "key": {"[1]": {"target": "T1, GST-PRDM10 441-880 (central zinc finger array) (UniProt Q3UTQ7 441-880)", "T1 sequence": "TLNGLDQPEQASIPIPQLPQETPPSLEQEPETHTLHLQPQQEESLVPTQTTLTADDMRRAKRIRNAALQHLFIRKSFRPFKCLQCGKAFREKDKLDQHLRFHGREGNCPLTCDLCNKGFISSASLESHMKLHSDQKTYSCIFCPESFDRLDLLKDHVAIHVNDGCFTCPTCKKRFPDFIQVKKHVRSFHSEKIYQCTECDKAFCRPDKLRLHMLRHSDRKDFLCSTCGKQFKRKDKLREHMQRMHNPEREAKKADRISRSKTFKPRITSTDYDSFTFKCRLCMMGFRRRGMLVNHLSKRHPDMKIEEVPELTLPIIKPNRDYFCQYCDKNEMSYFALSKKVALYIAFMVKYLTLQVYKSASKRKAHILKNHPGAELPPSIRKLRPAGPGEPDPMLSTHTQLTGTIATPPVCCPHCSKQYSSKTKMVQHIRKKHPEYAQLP", "test": "competition; EMSA, 20- to 320-fold excess over 10 nM labeled WT probe; 0.4 uM ZnCl2; EMSA: 6 mM HEPES-KOH pH 7.9, 6% glycerol, 100 ug/mL BSA, 0.4 uM ZnCl2, 20 ug/mL poly(dI-dC), room temperature 20 min; 6% native PAGE in 0.25x TBE", "conditions": "protein: recombinant; tags: GST; blunt"}, "[2]": {"target": "T1, GST-PRDM10 441-880 (central zinc finger …)", "test": "EMSA; 125-1000 nM protein, 10 nM probe; 0.4 uM ZnCl2; EMSA: 6 mM HEPES-KOH pH 7.9, 6% glycerol, 100 ug/mL BSA, 0.4 uM ZnCl2, 20 ug/mL poly(dI-dC), room temperature 20 min; 6% native PAGE in 0.25x TBE", "conditions": "protein: recombinant; tags: GST; label: 5'-biotin; blunt"}},
  "data": [
    {"binder": "WT unlabeled competitor (dsDNA) DNA 1: CTGGCACAGTGGTCGCGCCCGGCCCGCC DNA 2: GGCGGGCCGGGCGCGACCACTGTGCCAG", "values": [
      {"measurement": "binding result", "setting": "[1]", "value": "binds"}
    ]},
    {"binder": "WT probe (dsDNA) DNA 1: CTGGCACAGTGGTCGCGCCCGGCCCGCC DNA 2: GGCGGGCCGGGCGCGACCACTGTGCCAG", "values": [
      {"measurement": "binding result", "setting": "[2]", "value": "binds"}
    ]}
  ]
}
